The record followed here is the nanobody polyreactivity screen of Harvey et al. (2022).

The data set can be described thus: yeast display, Sf9 membrane polyspecificity reagent, FACS + sequencing; frameworks hold sequencing errors. The method in brief: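 Genes from sorted yeast were amplified by colony PCR, read by MiSeq 2 × 250 sequencing and filtered on CDR length. These cells carried a synthetic nanobody library in Saccharomyces cerevisiae BJ5465 and were sorted by FACS into low and high (top ~1%) gates on anti-HA and streptavidin fluorescence. Polyreactivity is labelled according to the gate of origin.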
Consider “QVQLVESGGGLVQAGGSLRLSCAASGSTFHRKAMGWYRQAPGKERELVASISIGGSTNYADSVKGRFTISRDNAKNTVYLQMNSLKPEDTAVYYCATEPNPRRPRVDYDYWGQGTQVTVSS”, for which the “polyreactivity (PSR sort gate)” value is given as “low polyreactivity”.

As to “QVQLVESGGGLVQAGGSLRLSCAASGSTFHRNAMGWYRPAQGKERELVASISIGGSTNYADSVKGRVTISRDNAKNTVYLQMNSLKPEDTAVYYCATEPNPRRPRVDYDYWGQGTQVTVSS”, the “polyreactivity (PSR sort gate)” value is “low polyreactivity”.

With “QVQLVESGGGLVQAGGSLRLSCAASGSTFHRNGMGWYRQAPGKERELVAAISRTGGSTYYADSEKGRFTISRDNAKNTVYLQMNSLKPEDTAVYYCAAQGNNYVRHTYGYWGQGTQVTVSS”, the “polyreactivity (PSR sort gate)” value is reported as “low polyreactivity”.

As to “QVQLVESGGGLVQAGGSLRLSCAASGSTFHRYAMGWYRQAAGKERELVATITSRGGITYYADSVKGRFTISRDNAKNTVYLQMNSLKPEDTAVYYCNTEDGTTPQYGYDQGMYYWGQGTQVTVSS”, the “polyreactivity (PSR sort gate)” value is given as “low polyreactivity”.

On to “QVQLVESGGGLVQAGGSLRLSCAASGSTFHRYTMGWYRQAPGKERELVAAISSGGRTYYADSVKGRFTISRDNAKNTVYLQKNSLKPEDTAVYYCNSRYPRQYWGGYDYWGQGTQVTVSS”, for which the “polyreactivity (PSR sort gate)” value is “high polyreactivity”.

For the sequence “QVQLVESGGGLVQAGGSLRLSCAASGSTFHRYVMGWYRQAPGKERELVAVINSTGGSTYYADSVKGRFTISRDNAKNTVYLQMNSLKPEDNAVYYCARVTRRGPGYTTLYSRYDYWGQGTQVTVSS”, the “polyreactivity (PSR sort gate)” value was “low polyreactivity”.

Take “QVQLVESGGGLVQAGGSLRLSCAASGSTFHSYAMGRYRQAPGKEREFVAAITIRGGSTYYADSVKGRFTISRDNAKNTVYLQMNSLKPEDTAVYYCAALVWGSYARWRYYWGQGTQVTVSS”: the “polyreactivity (PSR sort gate)” value was “high polyreactivity”.

Regarding “QVQLVESGGGLVQAGGSLRLSCAASGSTFHTYTMGWYRPAPGKERELVAGISRSGGSTYYAESVKGRFTISRDNAKNTVYLQMNSLKPEATAVYYCNALSSKTDTYDYWGQGTQVTVSS”, the “polyreactivity (PSR sort gate)” value was “high polyreactivity”.

For the sequence “QVQLVESGGGLVQAGGSLRLSCAASGSTFHWYVMGWYRQAPAKERELVAAITWSGGSTYYADSVKGRFTISRDNAKNTVYLQMNSLKPEDTAVYYCNAVFWIWNAGYDYWGQGTQVTVSS”, the “polyreactivity (PSR sort gate)” value was “low polyreactivity”.

With “QVQLVESGGGLVQAGGSLRLSCAASGSTFIFNTMGWYRQAPGKERELVASITGDGRTNYADSVKGRFTISRDNAKNTVYLQMNSLKPEDTAVYYCAADGYDQYPLWAPPGDYWGQGTQVTVSS”, the “polyreactivity (PSR sort gate)” value is given as “low polyreactivity”.

Take “QVQLVESGGGLVQAGGSLRLSCAASGSTFIFYVMGWNRQAPGKERELVASITGNGTSTYYADSVKGRFTISRDNAKNTVYLQMNSLKPEDTAVYYCNAVFSPSRYDYWGQGTQVTVSS”: the “polyreactivity (PSR sort gate)” value is “low polyreactivity”.

In the case of “QVQLVESGGGLVQAGGSLRLSCAASGSTFIIYAMGWYRQAPGKERELVAAISWSGGSTYYADSVKGRFTISRDNAKNTVYLQMNSLKPEDTAVYYCNAARYYTPWRTWYDYWGQGTQVTVSS”, the “polyreactivity (PSR sort gate)” value is “high polyreactivity”.

Turning to “QVQLVESGGGLVQAGGSLRLSCAASGSTFINYAMGWYRQAPGKERELVAAISKGGGSTYYADSVKGRFTISRDNAKNTVYLQMTSLKPEDTAVYYCAATGRAGAGKRKYEYWGQGTQVTVSS”, the “polyreactivity (PSR sort gate)” value is reported as “high polyreactivity”.

In the case of “QVQLVESGGGLVQAGGSLRLSCAASGSTFIQYAMGWYRQAPGKERELVATIRWIGGSTYYADSVKGRFTISRDNAKNTVYLQMNSLKPEDTAVYYCAAGYEYVENGVDWYEYDYWGQGTQVTVSS”, the “polyreactivity (PSR sort gate)” value is given as “low polyreactivity”.

For the sequence “QVQLVESGGGLVQAGGSLRLSCAASGSTFIWNAMGWYRQAPGKVRELVAAISSGGSTYYADSVKGRFTISRDNAKNTVYLQMNSLKPEDTAVYYCAAEYVYNVSEQRYAVYSTDDYWGQGSQVTVSS”, the “polyreactivity (PSR sort gate)” value is reported as “low polyreactivity”.

“QVQLVESGGGLVQAGGSLRLSCAASGSTFIYNAMGWYRQAPGKERELVAAITWNGGSTYYADSVKGRFTISRDNAKNTVYLQMNSLKPEDTAVYYCAVDKGSQPHYDYWGQGTQVTVSS”: the “polyreactivity (PSR sort gate)” value is given as “low polyreactivity”.

“QVQLVESGGGLVQAGGSLRLSCAASGSTFIYYAMGWYRQAPGKERELVASISRSGGSTYYADSVKGRFTISRDNAKNTVYLQMNSLKPEDTAVYYCAAVGWTYEYWEWYDYWGQGTQVTVSS”: the “polyreactivity (PSR sort gate)” value was “high polyreactivity”.

Regarding “QVQLVESGGGLVQAGGSLRLSCAASGSTFIYYTMGWYRQAPGKERELVAAIPSSGGSTYYADSVKGRFTISRDNAKNTVYLQMNSLKPEDTAVYYCADDGTYIKFAKLYRRYDYWGQGTQVTVSS”, the “polyreactivity (PSR sort gate)” value was “low polyreactivity”.

Consider “QVQLVESGGGLVQAGGSLRLSCAASGSTFKAYAMGWYRQAPGKERELVAAITRRGTSTYYADSVKGRFTISRDNAKNTDYFQMNRLKPEDTAVFYCNAKYVSDRSSAVSFDYWVQGTQVTVSS”, for which the “polyreactivity (PSR sort gate)” value is “low polyreactivity”.

“QVQLVESGGGLVQAGGSLRLSCAASGSTFKAYAMGWYRQAPGKERELVAAITRRGTSTYYADSVKGRFTISRDNAKNTVYLQMNSLNPEDTAVYYCNAKYVSDRSSAVSFDYWGQGTQVTVSS”: the “polyreactivity (PSR sort gate)” value is “low polyreactivity”.

As to “QVQLVESGGGLVQAGGSLRLSCAASGSTFKAYAMGWYRQAPGKEWELVAAISASGGTTYYADSVKGRFTISRDNAKNTVYLQLKSLKPEDTAVYYCNARHPYTGGRRYPYTRYGYWGQGTQVTVSS”, the “polyreactivity (PSR sort gate)” value is recorded as “high polyreactivity”.

On to “QVQLVESGGGLVQAGGSLRLSCAASGSTFKLYAMGWYRPAPGKERELVAAISYRGGTTYYADSVKGRFTISRDNAKNSVYLQMNSLKPEDTAVYYCAAGWRPRYLRDASKYDYWGQGTQVTVSS”, for which the “polyreactivity (PSR sort gate)” value is “low polyreactivity”.

For “QVQLVESGGGLVQAGGSLRLSCAASGSTFKLYAMGWYRPAPGKERELVAAITSNCGRTYYADSVKGRFTISRDIAKNTVYLQMNSLKPEDTAVYYCAARRYAPAGGYDYWGQGTQVTVSS”, the “polyreactivity (PSR sort gate)” value was “high polyreactivity”.

Take “QVQLVESGGGLVQAGGSLRLSCAASGSTFKNNAMGWYRQAPGKEREFVASISKRGGSTYYADSVKGRFTISRDNAKNTVYLQMNSLKPEDTAVYYCGKTYWSYGWSHGDYGEFDYWGQGSQVTVSS”: the “polyreactivity (PSR sort gate)” value is “high polyreactivity”.

With “QVQLVESGGGLVQAGGSLRLSCAASGSTFKPNVMGWSRLAPGKERELVAAITSTDDPTYYADSVKGRFSISRDNAKNTVYLQMNSLKPEDTAVDYCAVESLRDDFEYDYWGQGTQVTVSS”, the “polyreactivity (PSR sort gate)” value is reported as “low polyreactivity”.

Take “QVQLVESGGGLVQAGGSLRLSCAASGSTFKRYAMAWYREGPGKEMDLVASISRSGCSTYYADSVKGRFTISRDNAKNSVYLQMNSLIPEDTAVYYCASRGFSFSFSYPSYDYWGQGTQVTVSS”: the “polyreactivity (PSR sort gate)” value is “high polyreactivity”.

On to “QVQLVESGGGLVQAGGSLRLSCAASGSTFKRYAMGWYRQAPAKERELVASISSGGSTNYADSVKGRFTISRDNAKNTVYLQMNSLKPEDTAVYYCNAVYYCYKGDYWGQGTQVTVSS”, for which the “polyreactivity (PSR sort gate)” value is recorded as “high polyreactivity”.

On to “QVQLVESGGGLVQAGGSLRLSCAASGSTFKRYAMGWYRQAPGKERELVAAIRRGGITNYADSVKGRFTISRDNAKNTVYLQINSLKPEDTAVYYWAATSIYSNYYREGYWGQGTQVTVSS”, for which the “polyreactivity (PSR sort gate)” value is “low polyreactivity”.

As for “QVQLVESGGGLVQAGGSLRLSCAASGSTFKRYAMGWYRQAPGKERELVAAISLSSGSTYYADSVKGRFTISRDNAKNTVYLQMNSLKPEDTAVYYCNAAKTYPDVYEYDYWGQGTQVTVSS”, the “polyreactivity (PSR sort gate)” value is “high polyreactivity”.

For the sequence “QVQLVESGGGLVQAGGSLRLSCAASGSTFKRYAMGWYRQAPGKERELVAANSASGGSTSYADSVKGRFTISRDNAKITVYLQMNSLTPEDTAVYYCAPYYWLYSSSYDYWGQGTQVTVSS”, the “polyreactivity (PSR sort gate)” value was “high polyreactivity”.

In the case of “QVQLVESGGGLVQAGGSLRLSCAASGSTFKTYAMGWYRQAPGKERELVAAITSSGGRTYYADSVKGRFTISRDNAKNTVYLQMNSLKPEDTAVYYCAAVRRSYNQLDYWGQGTQVTVSS”, the “polyreactivity (PSR sort gate)” value is “high polyreactivity”.

As to “QVQLVESGGGLVQAGGSLRLSCAASGSTFKTYTMGWYRQAPGKERELVAGITSGGSTSYADSVKGRFTISRDNAKNTVYLQMNSLKPEDTAVYYCAADTSYDSYEYWGQGTQVTVSS”, the “polyreactivity (PSR sort gate)” value is listed as “low polyreactivity”.

Regarding “QVQLVESGGGLVQAGGSLRLSCAASGSTFKVNAMGWYRQAPGKERELVAAISRGGSTYADSVKGRFTISRDNAKNTVYFQINSLKPEDTAVYYCAAKSRYFQPDEYYYWGQGTQVTVSS”, the “polyreactivity (PSR sort gate)” value is reported as “high polyreactivity”.

Turning to “QVQLVESGGGLVQAGGSLRLSCAASGSTFKVYAMGWYRQAPGKERELVATISKSGSTYADSVKGRFTISRDNAKNTVYLQMNSLKPEDTAVYYCAADLYTYPRTRRRAYGYWGQGTQVTVSS”, the “polyreactivity (PSR sort gate)” value is recorded as “high polyreactivity”.

As to “QVQLVESGGGLVQAGGSLRLSCAASGSTFKWYTMGWYRQAPGNEREFVAAISSSGGRTYYADSVKGRFTISRDNAKNTDYLQMNCLKPEDTAVYFCAAGYLYQFRAATFGYWGQGTQVTVSS”, the “polyreactivity (PSR sort gate)” value is recorded as “high polyreactivity”.

Regarding “QVQLVESGGGLVQAGGSLRLSCAASGSTFKYYAMGWYRQAPGKERELVAAISSGGSTYYADSVKGRFTISRDNAKNTVYLQMNSLKPEDTAVYYCAARGYYGKFSGSGYWGQGTQVTVSS”, the “polyreactivity (PSR sort gate)” value is recorded as “high polyreactivity”.

Consider “QVQLVESGGGLVQAGGSLRLSCAASGSTFKYYAMGWYRQAPGKERELVASITSGGSTYYADSVKGRFTISRDNAKNTVYLQMNSLKPEDTAVYYCNKRWITSYYTRYDYWGQGTQVTVSS”, for which the “polyreactivity (PSR sort gate)” value is on record as “high polyreactivity”.

Regarding “QVQLVESGGGLVQAGGSLRLSCAASGSTFKYYGMGWYRQAPGKERELVASISSSGTRTYYADSVKGRFTISRDNAKYTVYLQMNSLKPEDTAVYYCAADSYATYFLYDSWGQGTQVTVSS”, the “polyreactivity (PSR sort gate)” value is reported as “low polyreactivity”.

“QVQLVESGGGLVQAGGSLRLSCAASGSTFKYYVMGWYRQAPGKERELVAAISGRTGSTYYADSVKGRFTISRDNAKNTVYLQMNSLKPEDTAVYYCAKRGFLYWDHVSGFYRYDYWGQGTQVTVSS”: the “polyreactivity (PSR sort gate)” value is reported as “low polyreactivity”.

“QVQLVESGGGLVQAGGSLRLSCAASGSTFLAYTMGWYRQAPEKERELVADNTSNGGSTYYADSVKGRFTISRDNAKNTVYLQMNSLKPEDTAVYYCNTGSGAGITRPDDDFNYWGQGTQVTVSS”: the “polyreactivity (PSR sort gate)” value is “low polyreactivity”.
